Biological target: hPTH (1-34) (human) (UniProt P01270)
Design: unit not given beside the values

Row | Substance | IC50: 50% inhibition of cAMP production in cultured mouse osteoblast MC3T3-E1 cells
1 | Compound 3 (Ile-Gln-Leu-Met-His-Asn-Leu-Gly-Lys-Ser-Ile-Gln-Asp-Leu-Arg-Arg-Arg-Phe-Phe-Leu-His-His-Leu-Ile-Ala-Glu-Ile-His-Thr-Ala-NH2) (peptide) | 0.015
2 | Compound 1 (Ser-Glu-Ile-Gln-Leu-Met-His-Asn-Leu-Gly-Lys-Ser-Ile-Gln-Asp-Leu-Arg-Arg-Arg-Phe-Phe-Leu-His-His-Leu-Ile-Ala-Glu-Ile-His-Thr-Ala-NH2) (peptide) | 0.007
3 | [Tyr^34]-hPTH (3-34)-NH2 (from UniProt P01270) (peptide) | 1
